Measured values: publication doi:10.1101/2023.01.11.523539

Assays:
Test in all cases: two-hybrid
[1] = biological target: BD-MLA13 (wild-type MLA13 fused N-terminally to the LexA binding domain) (barley)
[2] = biological target: BD-MLA13^D2A_E17A (α1-helix mutant of MLA13 fused N-terminally to the LexA binding domain) (barley)
[3] = biological target: BD-MLA13^F99E (CC domain mutant of MLA13 fused N-terminally to the LexA binding domain) (barley)

**Q.** “AD-AVRA13-V2 (AVRA13-V2 lacking signal peptide, fused N-terminally to the B42 activation domain and 1xHA) (natural protein)” was tested. Which lowest dilution of yeast with growth without leucine [1] did it give?
**A.** 0.001 OD600

**Q.** And the lowest dilution of yeast with growth without leucine [2]?
**A.** 0.01 OD600

**Q.** What about the lowest dilution of yeast with growth without leucine [3] of the same substance?
**A.** 0.01 OD600
